Results as given in the supplement of paper PMC9732359.
± gives the uncertainty stated by the source.

Assay: protein stability index of a GFP-peptide fusion (yeast GPS) (PSI 1-4); higher = more stable; sorted into four equal gates, so the index is relative within each strain
Settings: san1∆
Summary of the method: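 Tiled 17-residue peptides from yeast proteins were fused downstream of GFP on a plasmid that also expresses Cherry, and the pooled library was carried in yeast. Mid-log cultures grown in leucine-free medium were sorted into four equal gates by GFP/Cherry fluorescence ratio. Plasmids from each gate were PCR-amplified and Illumina-sequenced, and reads were assigned to strains by barcodes. Each peptide's protein stability index is the sum, over gates, of the gate's read frequency multiplied by its gate number.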
SLKTKLNSNIRAGVTIP [SNF5] showed a protein stability index of 2.36 ± 0.066.

Same assay, conditions: ubr1∆
In the case of SAEDEENIIQRLQAANS [CDC53], the protein stability index is reported as 3.02 ± 0.065. With SAETLSELIRTTLDAEK [FAS1] the protein stability index was 2.63 ± 0.053. For SAGRLYACISSRPGQSG [RPS8A], the protein stability index was 3.03 ± 0.088. Work on SAILLSETDKRQFLHEL [RPO31] yielded a protein stability index of 2.63 ± 0.052. Sequence SALCILKEQELVLYDAE [BRR2] has a protein stability index of 2.52 ± 0.1. SANPKKTTITRVEPETF [SWI3] showed a protein stability index of 2.95 ± 0.051. In the case of SAQSIASAKSVRSGVSK [YAR002W/NUP60], the protein stability index is reported as 2.96 ± 0.057. In the case of SASNTAKSTPNTNPSPL [GAL11], the protein stability index is reported as 2.9 ± 0.032. Sequence SASRAKNMPVIYNNIVS [RGR1] has a protein stability index of 2.34 ± 0.047. SATLPNYEDVGRFLRVP [BRR2] gave a protein stability index of 3.01 ± 0.075. Work on SAVLLETTLGEMAEKID [PRP8] yielded a protein stability index of 1.65 ± 0.11. In the case of SAVVSSNASRRKLINYT [RPN4], the protein stability index is reported as 3.26 ± 0.14. SCEVEEIGLLGGRYVYP [SNU114] showed a protein stability index of 2.8 ± 0.06. With SCGYPAAKTRSYNWGAK [RPL37A] the protein stability index was 3.31 ± 0.12. Work on SCLTFFQALDSEETQFK [ITC1] yielded a protein stability index of 3.17 ± 0.15. Work on SCQGNVIYRNSLYKVSF [YMR129W/POM152] yielded a protein stability index of 2.71 ± 0.094. SCRNPEHTDVIDELIDT [YIL149C/MLP2] showed a protein stability index of 2.58 ± 0.035. In the case of SCTKCPQIVVPDAQNEL [DIS3], the protein stability index is reported as 2.34 ± 0.059. With SDAAKEPPGSNTSFSFT [YOR098C/NUP1] the protein stability index was 1.91 ± 0.045. Work on SDAKEQHQSLSRSSSKN [ESC2] yielded a protein stability index of 3.27 ± 0.11. For SDAVMAEHSQNKIDQSL [YJL041W/NSP1], the protein stability index was 3.07 ± 0.056. Work on SDEAIIPVNKRRGAHGS [SIR3] yielded a protein stability index of 2.93 ± 0.18. With SDKAQLNVVMKNLERLR [SMC4] the protein stability index was 2.72 ± 0.28. Work on SDLRVLSGSISERIVDC [FAS1] yielded a protein stability index of 3.26 ± 0.098. Sequence SDMQHIERLLKDLVTEN [PRE4] has a protein stability index of 2.97 ± 0.15. With SDSEIPPLLVYKWTQGI [PRP8] the protein stability index was 2.07 ± 0.074. For SEEERKSSPISNEAAKP [YOR098C/NUP1], the protein stability index was 3.21 ± 0.071. Work on SEFDSRVKAMEVDEKPT [RPT5] yielded a protein stability index of 2.97 ± 0.062. Sequence SEIIDTNTSKQFQKARN [SRB8] has a protein stability index of 2.92 ± 0.095. Work on SEKGLLSATQFTQPALT [FAS1] yielded a protein stability index of 2.57 ± 0.038. SEKRLDHFIHLRNLHMK [SNF12] showed a protein stability index of 2.62 ± 0.037. Work on SELLGGTFKSTLDREYI [QCR2] yielded a protein stability index of 3.1 ± 0.05. With SERIVDCIIRLPVKWET [FAS1] the protein stability index was 2.62 ± 0.056. Sequence SETADETLENNIVSVLT [RPN11] has a protein stability index of 2.78 ± 0.097. SETQTKDENNTANDQYS [YCG1] gave a protein stability index of 3 ± 0.044. SEYMVFGKLAFPTRLGQ [YJL039C/NUP192] gave a protein stability index of 2.15 ± 0.059. For SFEKLYEGMKLGNHAIT [YMR129W/POM152], the protein stability index was 2 ± 0.15. In the case of SFFSGLSPPEFLFHAIS [RPO31], the protein stability index is reported as 1.91 ± 0.041. Sequence SFFVSVRKAITVLFFIG [FAS1] has a protein stability index of 1.09 ± 0.041. Work on SFIINFISNLPNVSDKY [NUT1] yielded a protein stability index of 1.95 ± 0.057. For SFNCENFFQAPQDYVLE [YML031W/NDC1], the protein stability index was 3.11 ± 0.067. SFNVKENQPFHGIKDIP [AAR2] gave a protein stability index of 2.34 ± 0.21. With SFQLSKIRRAARDLLTR [RPS9A] the protein stability index was 1.98 ± 0.032. In the case of SFSFSIPSKNTPDASKP [YLR335W/NUP2], the protein stability index is reported as 2.5 ± 0.037. SFTFASSKTSQPKPLFS [YOR098C/NUP1] showed a protein stability index of 2.69 ± 0.029. Work on SFTPSTVPNINFSGLNG [YOR098C/NUP1] yielded a protein stability index of 2.97 ± 0.05. With SFVLNKNTIDFERFPSP [RPN4] the protein stability index was 2.88 ± 0.052. With SGAYSYPDFRHYGLAVD [DIS3] the protein stability index was 2.67 ± 0.043. In the case of SGDRLTRASKVLEQLSG [RPL11A], the protein stability index is reported as 2.92 ± 0.13. With SGEEKGKKVSGFKDEVL [RPS1B] the protein stability index was 3.46 ± 0.083. Work on SGGLFGNQQQQLQQQPQ [YGL172W/NUP49] yielded a protein stability index of 3 ± 0.12. Work on SGKITDFIKFDAGKLVY [RPS4A] yielded a protein stability index of 3 ± 0.064. SGLMVILYTSKIVFILD [RRI2] gave a protein stability index of 1.69 ± 0.037. Work on SHAIRLGNGVACDPSEI [RGR1] yielded a protein stability index of 2.16 ± 0.15. SHFSPDIKAAVDDSMEL [ITC1] showed a protein stability index of 2.48 ± 0.079. SIKSQKEEISDQKPIEH [SWI3] gave a protein stability index of 2.96 ± 0.045. SILESSMFLRIDYSNSQ [RGR1] gave a protein stability index of 2.41 ± 0.063. SILKRHSFAVLLHERKL [NUT1] gave a protein stability index of 2.45 ± 0.1. For SISGFKEALLGQLLKDH [ARP9], the protein stability index was 2.26 ± 0.068. Work on SISSVVSEDLLDERGHE [RPN4] yielded a protein stability index of 2.79 ± 0.057. With SITLQGDVYDPEGTLSG [SMC2] the protein stability index was 2.28 ± 0.12. For SIVNICDIQEEQVDITA [PUP1], the protein stability index was 2.74 ± 0.11. With SKDEPVSKAVESKSLLN [SIR4] the protein stability index was 1.86 ± 0.097. With SKESWRYDWYQPSKVSS [RTT102] the protein stability index was 1.96 ± 0.036. SKFTKIPPTFDKGAVGP [MED4] showed a protein stability index of 3.08 ± 0.11. For SKGYPIQFLTIGAGVPS [FAS1], the protein stability index was 1.34 ± 0.036. Work on SKIRKIHIQETQEFSKN [SIR3] yielded a protein stability index of 3.36 ± 0.084. In the case of SKKAEKTGTKPAAVFTE [RPL4A], the protein stability index is reported as 2.76 ± 0.061. SKKDFKIIDNPKSFLKK [YMR129W/POM152] gave a protein stability index of 3.17 ± 0.092. With SKKKKNIKKKDTKDALS [RPC53] the protein stability index was 3.3 ± 0.21. Sequence SKKRFAAIWTLCKTKMV [RPO21] has a protein stability index of 1.57 ± 0.032. With SKKRKLNSLTNLLSKRN [SNM1] the protein stability index was 2.81 ± 0.057. SKKVLECLPAEGHDWKA [DIS3] showed a protein stability index of 1.55 ± 0.07. SKKYQLADWRIRPLSKP [RRP6] gave a protein stability index of 1.99 ± 0.049. In the case of SKLAEEKIRAAGGVVEL [RPL28], the protein stability index is reported as 2.943 ± 0.025. Work on SKNPLSLTEATKTNVDN [YLR335W/NUP2] yielded a protein stability index of 3.31 ± 0.092. For SKRVYKILSPTMYMEVY [CDC53], the protein stability index was 2.63 ± 0.092. With SKSAFSFGSKPTGKEEG [YJL041W/NSP1] the protein stability index was 3.16 ± 0.067. Sequence SKSDSDSEERDPKLEKC [ITC1] has a protein stability index of 1.84 ± 0.058. Work on SKSGRIFALVFSSNERY [RPN13] yielded a protein stability index of 2.62 ± 0.049. Work on SKTDNIEDPNLSSNITF [YMR153W/NUP53] yielded a protein stability index of 3.27 ± 0.073. SKVASSLVIIILVKRYS [ECM29] showed a protein stability index of 2.12 ± 0.051. With SKVQFDAKTSYPNEVLK [REC8] the protein stability index was 3.04 ± 0.067. In the case of SKVREEVGDVCINELDN [RPO31], the protein stability index is reported as 3.18 ± 0.065. With SKVTKKHGAKKVAKRTK [RPL27B] the protein stability index was 3.26 ± 0.22. Sequence SKVYFNNQSKEKADYED [RPN12] has a protein stability index of 2.48 ± 0.054. Sequence SKVYYNLGEYESAVKYA [RPN2] has a protein stability index of 2.84 ± 0.056. SKYFIIDSFFLYVLPSF [YMR129W/POM152] gave a protein stability index of 1.23 ± 0.028. Sequence SLADNEIALKGLESLLN [YCS4] has a protein stability index of 2.94 ± 0.073. Work on SLAPEADLDSLIIRNDS [RPT3] yielded a protein stability index of 2.82 ± 0.071. SLDQGDAEEDSQVENRV [SMC4] showed a protein stability index of 2.83 ± 0.17. SLDSCTAAFTAMICEAK [YJR042W/NUP85] gave a protein stability index of 2.81 ± 0.096. For SLEHELKRSTELLETVS [YIL149C/MLP2], the protein stability index was 2.17 ± 0.037. For SLFGSIGDDGYDLLIST [SRB5], the protein stability index was 3.5 ± 0.11. SLGDGTNYYLTTARNDL [CSL4] gave a protein stability index of 2.91 ± 0.1. Sequence SLGHQTSLITAVYGPRS [MTR3] has a protein stability index of 1.81 ± 0.053. SLHTKNVFGTLQRHSGI [YLR018C/POM34] gave a protein stability index of 2.97 ± 0.06. With SLIEDFVDGIANSKKST [SRB7] the protein stability index was 3.04 ± 0.062. In the case of SLKGVDPKFRRNHKHAL [RPL29], the protein stability index is reported as 1.78 ± 0.12. In the case of SLKNVTEKNREIYKQLN [YIL149C/MLP2], the protein stability index is reported as 2.99 ± 0.05. SLKTKLNSNIRAGVTIP [SNF5] gave a protein stability index of 2.63 ± 0.047.
